Reference: the supplement of paper PMC10126150
± gives the standard deviation of the averaged measurements.

Tested on: ATP
Experiment: switch fluorescence ratio, 500 uM ATP over buffer (Cy3 cluster intensity, sum of 5 cycles each) (fold (ratio)); higher = stronger signal-on switching upon ATP binding; sequences stand for … in TCGTCGGCAGCGTCAGATGTGTATAAGAGACAGTTTTTTTTTTTTTTTTTTTTTTTTT…TC
Details: aptamer strand: ATP DNA aptamer (quencher-CACCTGGGGGAGTATTGCGGAGGAAGG + anchor), 100 nM annealed; ATP concentration: 500 uM
Method in brief: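 Clusters carrying Cy3-labelled switching strands on a modified Illumina MiSeq flow-cell were annealed to 100 nM quencher-labelled ATP aptamer and imaged in selection buffer. They were imaged again after 15 min with 500 uM ATP at 22 °C, over five buffer/ATP cycles with NaOH stripping and re-annealing in between. For each cluster, the fluorescence ratio is the summed Cy3 intensity of the target cycles divided by that of the buffer cycles, averaged per switch-domain sequence. Clusters outside 100-1000 RFU were left out.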
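Also: ATP exposure 15 min at 22 °C before imaging.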

Row | Sequence | switch fluorescence ratio
1 | GTCTAAATCG | 0.981 ± 0.015
2 | TTATTGCATG | 0.96 ± 0.013
3 | TATAGGCTTT | 0.97 ± 0.024
4 | CCCGATGTTA | 0.9973 ± 0.0041
5 | CGGGTCGTGG | 0.996 ± 0.024
6 | GAGAGGATGG | 0.984 ± 0.042
7 | TTGCTGTCGG | 0.985 ± 0.038
8 | CGCTTGGTCG | 1.03 ± 0.016
9 | TTTCTGTTTT | 0.9913 ± 0.0088
10 | GCCATTTTGA | 0.956 ± 0.037
11 | TATGTGTGTG | 0.9889 ± 0.0089
12 | GAGGGGGCGT | 1.01 ± 0.04
13 | TTGGTATGAG | 0.997 ± 0.013
14 | TGGGAAAGCG | 1 ± 0.024
15 | GAGTTTAGGT | 1.02 ± 0.011
16 | CGGAATTTTT | 0.971 ± 0.016
17 | GGCGAGACGC | 0.981 ± 0.031
18 | TTATGTGTTT | 1.014 ± 0.006
19 | GGTAGATTTT | 0.9792 ± 0.003
20 | GAATCAGGGA | 1.02 ± 0.015
21 | ATAGTATATT | 0.982 ± 0.044
22 | CAGGCGACTG | 0.9706 ± 0.0041
23 | GAGGGAAGAG | 1.01 ± 0.021
24 | AAGGGAGGCT | 1.01 ± 0.066
25 | ATTTGTGAAC | 1.02 ± 0.024

Row | Sequence | switch fluorescence ratio
26 | ACATAGAGAT | 1.02 ± 0.039
27 | ATTCATTGTC | 1.09 ± 0.11
28 | ACCGTCTGTA | 1.014 ± 0.0058
29 | GAAGGGGTGG | 1.01 ± 0.037
30 | CAGCAGGGAG | 1.1 ± 0.096
31 | TAGATAGAAT | 1 ± 0.045
32 | AAGCCGTGCG | 1.02 ± 0.014
33 | TTATGGTGT | 1.0044 ± 0.00076
34 | ATGAGGTAGG | 1.03 ± 0.05
35 | TTGTGTTTTC | 0.9971 ± 0.006
36 | AATCGTTGGG | 0.955 ± 0.038
37 | AGGTTATGGG | 1.04 ± 0.082
38 | TGAAGCATTG | 1.35 ± 0.38
39 | TTGGACTGGT | 1.04 ± 0.039
40 | TTTTGCTGCG | 1.023 ± 0.0033
41 | GATTCAAGAT | 0.993 ± 0.03
42 | ATAGGTAGGG | 0.984 ± 0.0086
43 | GATGGTTAGA | 0.998 ± 0.036
44 | ATGAGGGGCG | 1.02 ± 0.041
45 | ATATTAGATT | 1.019 ± 0.0076
46 | GCTAGCCAAA | 0.998 ± 0.011
47 | CGGGATCATT | 0.958 ± 0.017
48 | CATTTCGAAC | 1.02 ± 0.027
49 | GATAGGGCAT | 1.02 ± 0.012
50 | GGTCCTTGTT | 1.005 ± 0.0018

Row | Sequence | switch fluorescence ratio
51 | TAGAACATGG | 0.964 ± 0.061
52 | AAGGGGGGAT | 0.974 ± 0.02
53 | ATCATACGGG | 1.03 ± 0.02
54 | TTTGTTACAG | 1 ± 0.031
55 | GGTGCCTGAG | 1.06 ± 0.03
56 | GAAAAAGTGG | 0.998 ± 0.014
57 | ACAGGCGCTT | 1.01 ± 0.013
58 | TTTGGTTGTG | 0.986 ± 0.018
59 | GACCCGGGTG | 2.98 ± 0.18
60 | GGTAGCAGGG | 1.014 ± 0.0097
61 | GTTTCTGGAG | 1.03 ± 0.013
62 | GAGGGGGCAC | 1.03 ± 0.042
63 | TTGATTTTGA | 1.04 ± 0.037
64 | CGGGTAGAAG | 0.971 ± 0.046
65 | CCTGTAGTTG | 1.04 ± 0.037
66 | TTTGGAGGGG | 1.03 ± 0.039
67 | TTCATGGGGA | 0.985 ± 0.023
68 | GATTCCATAG | 1.06 ± 0.034
69 | TGTTGAAGGT | 1.02 ± 0.029
70 | CACGGATTGC | 1.18 ± 0.039
71 | CATAATGCGG | 1.005 ± 0.0012
72 | GGGGGACTGG | 0.981 ± 0.019
73 | ACATATTTGA | 1.01 ± 0.03
74 | GACATGGGAT | 1.01 ± 0.037
75 | AGGCTTTTTT | 0.966 ± 0.065

Row | Sequence | switch fluorescence ratio
76 | GCTACCGGTG | 1.1 ± 0.072
77 | AGGGGTCGCG | 0.981 ± 0.0054
78 | GAAACAGATA | 1 ± 0.012
79 | GTATGAAGAG | 0.995 ± 0.023
80 | GACCGAAAGT | 0.998 ± 0.01
81 | TCGCTCACGG | 1.03 ± 0.021
82 | CGGGCACGTG | 0.946 ± 0.021
83 | GTTTGGCCGT | 0.97 ± 0.035
84 | GGGGGAGTCA | 1 ± 0.056
85 | GCGTTGCAGG | 1.02 ± 0.018
86 | GCACAATTAG | 1.04 ± 0.0071
87 | AACAGTTTTA | 0.972 ± 0.011
88 | GGTAGATTGG | 0.961 ± 0.015
89 | TTAATCTGAG | 1.02 ± 0.012
90 | GGGGGAATA | 0.993 ± 0.051
91 | TGCAGGTCTT | 1 ± 0.052
92 | TAACGCTAGA | 1.06 ± 0.03
93 | ATCGGTATTT | 1.19 ± 0.39
94 | GAGGGGATAG | 1.03 ± 0.046
95 | AGTGCAACTG | 1.01 ± 0.03
96 | CGGGTAGGCT | 1.02 ± 0.057
97 | ACTGGGGGAA | 0.97 ± 0.018
98 | AGTTCGGGAG | 0.99 ± 0.013
99 | TCGGATAGAG | 0.949 ± 0.058
100 | TTTCATTCGG | 1.06 ± 0.13
